The star is where a group is joined. Biotin = O=C1N[C@H]2[C@H](CS[C@H]2CCCCC(=O)*)N1; Ahx = NCCCCCC(=O)O
Target: gp120_(HxBc2) (HIV-1 (HxBc2), UniProt P04578 33-511)
Assay: cell-based or functional assay

In the case of Ac-LCDCPNGPWVWVPAFCQAVG-OH (cysteine pairing not given here) [P6‐2], the “IC50 of inhibition of HIV-1 NL4-3 infection of CEMx174 SEAP reporter cells” value is reported as 2630 nM.

For {Biotin-Ahx}-LCDCPNGPWVWVPAFCQAVG-OH (cysteine pairing not given here) [P6‐2(Bio)], the “IC50 of inhibition of HIV-1 NL4-3 infection of CEMx174 SEAP reporter cells” value was 1240 nM.

Reference: paper PMC8248410 (Chemmedchem, 2021)
